# Measurements: patent US20260072038A1
# How the values were obtained:
# [1] = biological target: Human TNFa (recombinant) (human) (UniProt P01375); assay: SPR (Biacore), average of three BYL batches, TNFa as analyte
# [2] = biological target: huCD64/human FcRI (R&D Systems 1257FC) (human) (UniProt P12314); assay: SPR (Biacore), average of three BYL batches, CD64 as analyte
# [3] = biological target: huCD64/human FcRI (R&D Systems 1257FC) (human) (UniProt P12314); assay: SPR (Biacore), antibody captured on Protein A CM5 chip, CD64 as analyte
# [4] = biological target: Human TNFa (recombinant) (human) (UniProt P01375); assay: SPR (Biacore), antibody captured on Protein A CM5 chip, TNFa as analyte
Substance,Kd [1],Kd [2],Kd [3],Kd [4],koff [4],kon [4],koff [3],kon [3]
"BYL-mAb (adalimumab produced in BYL, average of the three batches) (antibody)",134 pM,353 pM,,,,,,
"Humira CF CHJ (adalimumab produced in BYL/ALiCE, batch CHJ) (antibody)",,,346 pM,,,,,
"Humira CF DAK (adalimumab produced in BYL/ALiCE, batch DAK) (antibody)",,,346 pM,,,,,
"Humira CF DB3 (adalimumab produced in BYL/ALiCE, batch DB3) (antibody)",,,367 pM,122 pM,5.83e-05 s⁻¹,478000 M⁻¹ s⁻¹,0.000252 s⁻¹,686000 M⁻¹ s⁻¹
"Reference IgG Adalinumab (Humira) (ABIN5668145), commercial adalimumab reference product expressed from CHO cells (antibody)",,,158 pM,185 pM,8.37e-05 s⁻¹,453000 M⁻¹ s⁻¹,0.000152 s⁻¹,959000 M⁻¹ s⁻¹
